Experimental data: patent US12371725

Test system: Cre recombinase (Bacteriophage P1?)
Experiment: cleavage_in_vitro
Conditions: 73 nM Cre, 37 C, 30 min; approximate value; ethidium bromide inhibits

“pLoxFL BamHI digest (linear, two loxP sites)” showed an activity (% recombination) of 74.
